The text below walks through data of patent US20220153834A1 (published 2022).

Positions count from the first letter of the chain named.

Test [1] has as its target T1, Recombinant human TSG-6 (R&D Biosystems, catalog #2104-TS) (human, UniProt P98066 18-277). The test is described as follows: inhibition of HC-HA transesterase activity; HC-HA transesterase.
The target of test [2] is T1, Recombinant human TSG-6 (R&D …). The test is described as follows: inhibition of HA binding to TSG-6; HA binding.

T1 sequence (P98066 18-277): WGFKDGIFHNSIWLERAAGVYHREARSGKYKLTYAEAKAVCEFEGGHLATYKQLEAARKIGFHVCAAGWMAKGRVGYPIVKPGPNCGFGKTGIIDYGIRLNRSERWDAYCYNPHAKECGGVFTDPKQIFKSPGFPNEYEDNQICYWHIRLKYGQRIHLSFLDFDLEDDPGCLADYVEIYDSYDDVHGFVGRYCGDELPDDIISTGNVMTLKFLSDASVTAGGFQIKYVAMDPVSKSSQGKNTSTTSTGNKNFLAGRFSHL

B1: 5A5 (antibody, V domains shown)
VH: QVQLQQSGAELAKPGASVRLSCQASGYTFTTYWMHWVKQRPRQGLEWIGYIIPSSGYSKCHQKFKDKATLTADKSSNTASMQLSSLTYEDSAVYYCARSTSGYPYYFDYWGQGTTLTVSS
VL: ENVLTQSPAIMSASPGEKVTMTCSATSSVSYMHWYQQKSSTSPKLWIYDTSKLASGVPGRFSGSGSGNSYSLTISSMEAEDVATYYCFQGSWYPLTFGAGTKLELKR
Consider B1, for which the IC50 (in general, the concentration that inhibits the measured activity by half) in test [1] is 8 nM; in test [2], above 667 nM.

B2: anti-TSG-6 antibody of SEQ ID NO: 1 and SEQ ID NO: 2 (first entry of Table 1, clone name not printed) (antibody, V domains shown)
VH: QVRLQQSGAELAKPGASVKLSCKASGYTFTSYWMHWVKQRPGQGLEWIGYIIPSSGYTKNKQNFKDKATLTADKSSSTAYMQLSNLTYEDSAVYSCARSDGSYPYYFDYWGQGTTLTVSS
VL: B1 VL with T26S, W92G, A99S, L105I
In the case of B2, the IC50 was 19 nM in test [1] and above 2000 nM in test [2].

B3: 3E1 (antibody, V domains shown)
VH: B1 VH with T31S, S58T, N77S, S80Y, Y109S
VL: B1 VL with K18R, Y31F
Regarding B3, the results for the 50% inhibitory concentration (IC50) in test [1] and in test [2] were 10 nM and above 667 nM, respectively.

B4: 5B4 (antibody, V domains shown)
VH: QVQLQQPGAELVKPGASVKLSCKASDYTFTNYWMHWVKQRPGRGLEWIGRIDPSSGGAKYNEKFKSKATLTVDKPSSTAYMEFSSLTSEDSAVYYCVRSRYDYDGWFAYWGLGTLVTVSA
VL: DIVMTQAAPSVPVTPGESVSISCRSSKSLLHSNGNTYLYWFLQRPGQSPQLLIYRMSNLASGVPDRFSGSGSGTAFTLRISRVEAEDVGVYYCMQHLEYPFTFGGGTKLEIKR
On to B4, for which the IC50 in test [1] is 68 nM; in test [2], above 667 nM.

B5: 1A9 (antibody, V domains shown)
VH: EVQLQQSGPELVKPGASVKISCKASGYTFTDYYMNWVKQSHEKSLEWIGDINPNNGGTSYNQKFMGKATLTVDKSSRTAYMELRSLTSEDSTVYYCARWGIYDRFTYWGQGTLVSVSA
VL: DIKMTQSPSSMYASLGERVTIACKASQDINSFLSWFQQKPGKSPKTLIYRANRLVDGVPSRFSGSGSGQDYSLTISSLEYEDMGIYYCLQYDEFPLTFGAGTKLELKR
For the molecule B5, the results for the IC50 in test [1] and in test [2] were 375 nM and 32 nM, respectively.

B6: 1D7 (antibody, V domains shown)
VH: B5 VH with E42G, S59T, M65K, R77S, T92A, Y102F, L113V, S115T
VL: B5 VL with L15R, A22T
Regarding B6, the IC50 in test [1] was determined as 1100 nM; in test [2], 47 nM.

B7: 3C6 (antibody, V domains shown)
VH: EVQLQQSGPELVKPGASVKIPCKASGYTFTDYNMDWVKQSHGESLEWIGDIYPNNGGTIYNQKFKDKATLTVDKSSSTAYMELRSLTSEDNAVYYCARKTGTGFDYWGQGTTLTVSS
VL: QIVLSQSPAILSASPGEKVTMTCRARSSVIYMHWYQQKPGSSPKPWIYATFNLASGVPARFSGSGSGTSYSLTISRVEAEDAATYYCQQWSSNPPTFGSGTKLEIKR
Turning to B7, the figures for the half-inhibitory concentration (IC50) in test [1] and in test [2] were 12 nM and 10 nM, respectively.

B8: 4E4 (antibody, V domains shown)
VH: QVQLQQPGAELVKPGASVKLSCKASGYTFTSYWMHWVKQRPGQGLEWIGMIHPNSGSTNYNEKFKNKATLTVDKSSSTAYMQLSSLTSEDSAVYYCAPRMFDDYDDYWGQGTTLTVSS
VL: QIVLTQSPAIMSASLGERVTMTCTASSSVSSSYLHWYQQKPGSSPKLWIYSTSNLASGVPVRFSGSGSGTSYSLTISRMEAEDAATYYCHHYHRSPYTFGGGTKLEIKR
With B8, the IC50 in test [1] is 140 nM; in test [2], above 667 nM.

B9: 4F1 (antibody, V domains shown)
VH: EVKLVESGGGLVQPGGSLSLSCAASGFTFTDYYMSWVRQPPGKALEWLGFIRHKAKGYTAEYSASVKGRFTISRDNSQSILYLQMNALRAEDSATYYCARLYYYGSPHWYFDVWGTGTTVTVSS
VL: QIVLTQSPAIMSASPGEKVTMTCSASSSVSYMHWYQQKSGTSPKRWIYDTSKLASGVPARFSGSGSGTSYSLTISSMEAEDAATYYCQQWSSNPPTFGSGTELEIKR
As to B9, the IC50 is 44 nM in test [1] and above 667 nM in test [2].

B10: 3E4 (antibody, V domains shown)
VH: QVQLQQPGAELVKPGASVKLSCKASGYTFTSQWMHWVKQRPGQGLEWIGMIHPNSGSTNNNEKFKSKATLTVDKSSSTAYMQLSSLTSEDSAVYYCTRWAMDYWGQGTSVTASS
VL: DVVMTQTPLSLPVSLGDLASISCRSSQSLVHSNGNTYLHWYLQKPGQSPKLLIFKVSNRFSGVPDRFSGSGSGTDFTLKISRVEAEDLGVYFCSQSTHVPWTFGGGTKLEIKR
Consider B10, for which the IC50 was above 3000 nM in test [1] and 290 nM in test [2].

B11: 5D9 (antibody, V domains shown)
VH: QVQLQQSGAELARPGASVKLSCKASDDTFINYGINWVKQRTGQGLEWIGETFPSNGNTFYNEKFKGKATLTADRSSSTTYMELRSLTSEDAAVYFCARHSNLPYFDHWGQGSTLTVSS
VL: DIVMTQSPSSLSVSAGEKVTMSCKSSQSLLNSGNQKNYLAWYQQKPGQPPKLLIYGASTRESGVPERFTGSGSGTDFTLTISSVQAEDLAVYYCQNDHSYPFTFGGGTNLEIKR
As for B11, the IC50 in test [1] is 4 nM; in test [2] it was around 1400 nM.

B12: ID12 (antibody, V domains shown)
VH: QVQLQQSGPELVKPGASVKLSCKTSGYTFTSYDINWVKQRPGQGLEWIGWIYPSDGSTKFNEKFKGMATLTVDTSSSTAYMELHSLTSEDSTVYFCARGLWYYGGGVDYWGQGTSVTVSS
VL: DAVMTQTPLSLPVSLGDQASISCRSTQSLEDSNGNTYLNWYLQKPGQSPQLLIYRVSNRFSGVLDRFSGSGSGTDFTLKISRVEAEDLGVYFCLQVTHVPYTFGGGTKLEIKR
As to B12, the IC50 in test [1] was 36 nM; in test [2], above 667 nM.
